Results on one protein are retold here after patent US20110312897.

The target in series [1] is T1, H3 15-31 peptide, K27me2.
T1 chain: APRKQLATKAARKSAPA

Series [2] deals with T2, H3 15-31 peptide, K18 acetyl.
T2 chain: APRKQLATKAARKSAPA

Series [3] deals with T3, H3 15-31 peptide, K23 acetyl.
T3 chain: APRKQLATKAARKSAPA

The target of series [4] is T4, H3 15-31 peptide, K18ac+K23ac.
T4 chain: APRKQLATKAARKSAPA

Series [5] addresses C-terminally 6xHIS tagged, full-length recombinant histone H3.
Series [6] deals with rH3 pan-acetylated with acetic anhydride.
The target in series [7] is rH3-HIS+K27me2.

B1: recombinant mouse Cathepsin L (R&D Systems, # 1515-CY-010) (protein)
chain: TPKFDQTFSAEWHQWKSTHRRLYGTNEEEWRRAIWEKNMRMIQLHNGEYSNGQHGFSMEMNAFGDMTNEEFRQVVNGYRHQKHKKGRLFQEPLMLKIPKSVDWREKGCVTPVKNQGQCGSCWAFSASGCLEGQMFLKTGKLISLSEQNLVDCSHAQGNQGCNGGLMDFAFQYIKENGGLDSEESYPYEAKDGSCKYRAEFAVANDTGFVDIPQQEKALMKAVATVGPISVAMDASHPSLQFYSSGIYYEPNCSSKNLDHGVLLVGYGYEGTDSNKNKYWLVKNSWGSEWGMEGYIKIAKDRDNHCGLATAASYPVVN
Turning to B1, the “ELISA with the H3cs.1 antibody of the cleavage product, against the unmodified H3 15-31 peptide” value in series [1] is on record as “K27me2 (magenta) strongly increases the ability of Cathepsin L to cleave at H3cs.1 as compared to the matched unmodified H3 15-31 peptide”; in series [2], “acetylation at K18 (blue) also increases this activity”. Further, the “ELISA with the H3cs.1 antibody of the cleavage product” value was “the K23ac peptide shows very little cleavage activity at H3cs.1, both alone (green) and in combination with K18ac (black)” in series [3]; “the K23ac peptide shows very little cleavage activity at H3cs.1, both alone (green) and in combination with K18ac (black)” in series [4]. Also, the “H3 cleavage assay (immunoblot with HIS-HRP and H3.cs1 antibodies; mass spectrometry)” value in series [5] is “recombinant mouse Cathepsin L was able to cleave recombinant histone H3 at both pH 5.5 and pH 7.4”. Further, the “H3 cleavage assay with pre-activated enzyme, immunoblot with HIS and H3.cs1 antibodies” value in series [5] is “pre-activated Cathepsin L cleaves rH3-HIS robustly and produces a pattern that is similar to that observed in vivo”. Also, in series [6], the “H3 cleavage assay, immunoblot (substrate 3 against unmodified substrate 1)” value is “the acetylation of lysine residues greatly reduced cleavage of H3 by rCathepsin L at both pH 7.5 and 5.5”. In addition, the “H3 cleavage assay, immunoblot (substrate 2 against unmodified substrate 1)” value in series [7] was “K27me2 increases H3 cleavage”.
